Residue numbers refer to the chain shown, from its start. Like-named read-outs stand apart in the source and are kept apart here.
B1: human antizyme inhibitor, O14977 1-448 (natural protein)
chain: MKGFIDDANYSVGLLDEGTNLGNVIDNYVYEHTLTGKNAFFVGDLGKIVKKHSQWQNVVAQIKPFYTVKCNSAPAVLEILAALGTGFACSSKNEMALVQELGVPPENIIYISPCKQVSQIKYAAKVGVNILTCDNEIELKKIARNHPNAKVLLHIATEDNIGGEEGNMKFGTTLKNCRHLLECAKELDVQIIGVKFHVSSACKESQVYVHALSDARCVFDMAGEIGFTMNMLDIGGGFTGTEFQLEEVNHVISPLLDIYFPEGSGVKIISEPGSYYVSSAFTLAVNIIAKKVVENDKFPSGVEKTGSDEPAFMYYMNDGVYGSFASKLSEDLNTIPEVHKKYKEDEPLFTSSLWGPSCDELDQIVESCLLPELNVGDWLIFDNMGADSFHEPSAFNDFQRPAIYYMMSFSDWYEMQDAGITSDSMMKNFFFVPSCIQLSQEDSFSAEA
B2: human ornithine decarboxylase K169A (enzyme)
chain: EEFDCHFLDEGFTAKDILDQKINEVSSSDDKDAFYVADLGDILKKHLRWLKALPRVTPFYAVKCNDSKAIVKTLAATGTGFDCASKTEIQLVQSLGVPPERIIYANPCKQVSQIKYAANNGVQMMTFDSEVELMKVARAHPKAKLVLRIATDDSKAVCRLSVAFGATLRTSRLLLERAKELNIDVVGVSFHVGSGCTDPETFVQAISDARCVFDMGAEVGFSMYLLDIGGGFPGSEDVKLKFEEITGVINPALDKYFPSDSGVRIIAEPGRYYVASAFTLAVNIIAKKIVLKEQTGSDDEDESSEQTFMYYVNDGVYGSFNCILYDHAHVKPLLQKRPKPDEKYYSSSIWGPTCDGLDRIVERCDLPEMHVGDWMLFENMGAYTVAAASTFNGFQRPTIYYVMSGPAWQLMQQFQNPDFPP
notes: ornithine decarboxylase (ODC), human; cDNA cloned into pQE30
B3: human ornithine decarboxylase R277S (enzyme)
chain: B2 chain with A163K, R271S
notes: as for B2
B4: human ornithine decarboxylase K294A (enzyme)
chain: B2 chain with A163K, K288A
notes: as for B2
B5: human ornithine decarboxylase V322D (enzyme)
chain: B2 chain with A163K, V316D
notes: as for B2
B6: human ornithine decarboxylase Y331S (enzyme)
chain: B2 chain with A163K, Y325S
notes: as for B2
B7: human ornithine decarboxylase D332E (enzyme)
chain: B2 chain with A163K, D326E
notes: as for B2

Tests used:
[1] = molecular target: antizyme inhibitor (Homo sapiens) (UniProt O14977); conditions: cited from earlier work
[2] = molecular target: ornithine decarboxylase (Homo sapiens) (UniProt P11926); conditions: cited from earlier work
Sequence of ornithine decarboxylase (Homo sapiens) (P11926 whole entry): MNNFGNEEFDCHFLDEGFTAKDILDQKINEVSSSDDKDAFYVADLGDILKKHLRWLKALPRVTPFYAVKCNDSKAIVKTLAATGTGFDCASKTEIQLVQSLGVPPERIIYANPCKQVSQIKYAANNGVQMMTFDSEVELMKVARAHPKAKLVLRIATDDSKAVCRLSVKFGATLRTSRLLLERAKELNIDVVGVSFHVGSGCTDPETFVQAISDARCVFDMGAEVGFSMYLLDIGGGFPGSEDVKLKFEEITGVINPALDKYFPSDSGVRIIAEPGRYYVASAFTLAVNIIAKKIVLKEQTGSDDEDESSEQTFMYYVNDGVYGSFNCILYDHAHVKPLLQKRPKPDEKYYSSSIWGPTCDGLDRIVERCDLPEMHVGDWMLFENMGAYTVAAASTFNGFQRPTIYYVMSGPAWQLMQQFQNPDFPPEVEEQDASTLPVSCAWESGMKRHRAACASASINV

[3] = molecular target: ornithine decarboxylase (Homo sapiens) (UniProt P11926); conditions: cited from earlier work; remark: listed apart in the source
[4] = molecular target: antizyme inhibitor (Homo sapiens) (UniProt O14977); conditions: cited from earlier work; remark: listed apart in the source
[5] = molecular target: T1, human antizyme inhibitor (human), O14977; assay: AUC; sedimentation velocity, 0.3, 0.6 and 0.9 mg/ml protein in 50 mM Tris-HCl pH 7.5, 293 K, 42,000 rpm; global fit to a monomer-dimer equilibrium model (SEDPHAT); dimer to monomers; conditions: remark: other sources report otherwise
T1 chain: B1 chain

[6] = molecular target: the molecule itself; assay: as above

Row | Molecule | Kd [6] [nM] | other results
1 | antizyme inhibitor (from UniProt O14977) |  | Kd [1]: 84000 nM
2 | ornithine decarboxylase (from UniProt P11926) |  | Kd [2]: 180 nM
3 | antizyme (from UniProt P54368) |  | Kd [3]: 200 nM; Kd [4]: 20 nM
4 | B1 |  | Kd [5]: 72300 nM
5 | B2 | 300 ± 8 | 
6 | B3 | 80 ± 6 | 
7 | B4 | 100 ± 8 | 
8 | B5 | 560 ± 12 | 
9 | B6 | 1100 ± 8 | 
10 | B7 | 30 ± 7 | 

— article PMC4139326, “Functional Roles of the Dimer-Interface Residues in Human Ornithine Decarboxylase” (PLoS ONE, 2014)
